Results as given in patent US20150313990A1.

Columns and labels:
[1] = target: wild-type full-length HIV-1 BaL envelope glycoprotein gp160 expressed on the surface of HeLa cells (untreated) (HIV-1 BaL)
[2] = target: BaL Pro 2.0 (HIV-1 BaL gp160 with a proline inserted between Tyr 173 and Ala 174) on HeLa cells (HIV-1 BaL)
[3] = target: native HIV-1 BaL envelope trimers on the surface of persistently infected human T cells (PM1) (HIV-1 BaL)
[4] = target: native HIV-1 BaL envelope trimers on the surface of persistently infected human T cells (PM1) (HIV-1 BaL); assay: flow cytometry on infected PM1 cells pre-incubated with control buffer, PE anti-human IgG; panel header 'PM1 HT-pg9 25'
[5] = target: native HIV-1 BaL envelope trimers on the surface of persistently infected human T cells (PM1) (HIV-1 BaL); assay: flow cytometry on infected PM1 cells pre-incubated with sCD4 5 µg/ml (competitor, two-domain by the panel header) before PG9

Substance	Geom. Mean, Comp-PE-A (ΔV1V2)	Geom. Mean, Comp-PE-A [1]	Geom. Mean, Comp-PE-A [2]	MFI [3]	Mean fluorescence intensity (MFI) [4]	change of the MFI with sCD4 [5] [%]
NC human	152	139	129			
antibody 48d (CD4-induced epitope)	240	484	244			
monoclonal antibody PG9 (directed to the α-helix-containing region of V2; trimer-preferring)				2220	5210	-58
